This passage reports binding result and Kd results from paper PMC3136212, “Identification of the DNA-Binding Domains of Human Replication Protein A That Recognize G-Quadruplex DNA”.

The target in data set [1] is T1, RPA-CDE-core (human, UniProt P27694;P15927;P35244 436-616;43-171;1-121). Put plainly: competition; FP, 0-10 uM unlabeled vs 60 nM FAM-Comp; FP: 0.060 uM FAM-oligo, 10-1500 mM NaCl, room temperature; CD: Buffer A 25 mM Tris pH 7.5, 2 mM MgCl2, 6% glycerol, 1 mM DTT, 100 (or 10) mM NaCl, room temperature. As to conditions: protein: recombinant; tags: N-terminal His, thrombin-cleaved; copies: 1;1;1.
T1 sequence (P27694 436-616, chain 1 of 3): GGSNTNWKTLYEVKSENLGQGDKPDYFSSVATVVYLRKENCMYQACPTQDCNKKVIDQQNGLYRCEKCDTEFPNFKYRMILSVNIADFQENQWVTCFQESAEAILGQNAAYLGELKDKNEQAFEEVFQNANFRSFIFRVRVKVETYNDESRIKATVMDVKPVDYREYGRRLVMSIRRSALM
T1 sequence (P15927 43-171, chain 2 of 3): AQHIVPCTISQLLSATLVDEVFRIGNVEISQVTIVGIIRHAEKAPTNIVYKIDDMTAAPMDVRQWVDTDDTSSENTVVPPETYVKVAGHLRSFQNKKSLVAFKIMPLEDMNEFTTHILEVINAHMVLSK
T1 sequence (P35244 whole entry, chain 3 of 3): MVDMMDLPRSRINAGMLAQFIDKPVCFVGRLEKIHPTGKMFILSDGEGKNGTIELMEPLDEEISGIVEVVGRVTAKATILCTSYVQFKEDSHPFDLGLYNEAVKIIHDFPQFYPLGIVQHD

The target in data set [2] is T2, RPA (full-length heterotrimer RPA1/RPA2/RPA3) (human, UniProt P27694;P15927;P35244 1-616;1-270;1-121). The description is as above. As to conditions: protein: recombinant; copies: 1;1;1.
T2 sequence (P27694 whole entry, chain 1 of 3): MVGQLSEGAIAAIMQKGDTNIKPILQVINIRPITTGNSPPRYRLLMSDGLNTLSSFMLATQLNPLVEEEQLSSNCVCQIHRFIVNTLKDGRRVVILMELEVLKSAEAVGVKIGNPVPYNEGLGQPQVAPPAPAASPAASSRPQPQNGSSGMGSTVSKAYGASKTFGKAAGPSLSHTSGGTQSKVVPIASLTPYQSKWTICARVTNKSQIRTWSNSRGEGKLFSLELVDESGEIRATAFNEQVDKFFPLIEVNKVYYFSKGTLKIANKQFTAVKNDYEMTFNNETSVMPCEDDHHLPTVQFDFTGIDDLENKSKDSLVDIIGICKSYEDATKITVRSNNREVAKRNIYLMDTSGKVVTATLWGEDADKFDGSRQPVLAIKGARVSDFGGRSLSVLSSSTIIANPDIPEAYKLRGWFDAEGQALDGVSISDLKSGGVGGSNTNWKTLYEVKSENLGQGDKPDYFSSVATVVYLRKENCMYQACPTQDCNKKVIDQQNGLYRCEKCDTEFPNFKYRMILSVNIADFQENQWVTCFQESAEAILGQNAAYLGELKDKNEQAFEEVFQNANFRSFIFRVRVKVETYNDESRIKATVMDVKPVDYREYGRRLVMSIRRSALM
T2 sequence (P15927 whole entry, chain 2 of 3): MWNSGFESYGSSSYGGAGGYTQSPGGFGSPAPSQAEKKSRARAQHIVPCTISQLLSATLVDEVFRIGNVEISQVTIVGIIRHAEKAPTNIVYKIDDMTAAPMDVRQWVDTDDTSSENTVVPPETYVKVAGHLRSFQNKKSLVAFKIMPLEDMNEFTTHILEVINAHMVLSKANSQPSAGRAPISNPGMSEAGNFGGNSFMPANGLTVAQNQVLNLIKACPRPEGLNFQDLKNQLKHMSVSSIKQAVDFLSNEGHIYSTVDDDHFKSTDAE
T2 sequence (P35244 whole entry, chain 3 of 3): as the sequence (P35244 whole entry, chain 3 of 3) above
Data set [3] has as its target T3, RPA-DE (human, UniProt P15927;P35244 43-171;1-121). Put plainly: CD titration; 10 mM NaCl; stabilizes antiparallel G4; FP: 0.060 uM FAM-oligo, 10-1500 mM NaCl, room temperature; CD: Buffer A 25 mM Tris pH 7.5, 2 mM MgCl2, 6% glycerol, 1 mM DTT, 100 (or 10) mM NaCl, room temperature. As to conditions: protein: recombinant; tags: N-terminal His, thrombin-cleaved; copies: 1;1; intramolecular G4.

The target in data set [4] is T4, RPA-C (human, UniProt P27694 432-595, V435T;W442Q;V465T;V469T;F523S;F567S;I571T). Put plainly: CD titration; 10 mM NaCl; 254 nm peak decreases, 292 nm unchanged; FP: 0.060 uM FAM-oligo, 10-1500 mM NaCl, room temperature; CD: Buffer A 25 mM Tris pH 7.5, 2 mM MgCl2, 6% glycerol, 1 mM DTT, 100 (or 10) mM NaCl, room temperature. Conditions: protein: recombinant; tags: N-terminal His, thrombin-cleaved; intramolecular G4.
T4 sequence (P27694 432-595 V435T/W442Q/V465T/V469T/F523S/F567S/I571T): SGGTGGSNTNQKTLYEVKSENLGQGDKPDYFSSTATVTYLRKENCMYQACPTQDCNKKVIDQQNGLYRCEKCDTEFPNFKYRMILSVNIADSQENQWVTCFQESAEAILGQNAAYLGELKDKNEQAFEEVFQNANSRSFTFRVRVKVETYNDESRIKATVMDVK

The target of data set [5] is T1, RPA-CDE-core. The data set can be described thus: CD titration; 100 mM NaCl; unfolds G4, complete at protein:DNA 2; FP: 0.060 uM FAM-oligo, 10-1500 mM NaCl, room temperature; CD: Buffer A 25 mM Tris pH 7.5, 2 mM MgCl2, 6% glycerol, 1 mM DTT, 100 (or 10) mM NaCl, room temperature. As to conditions: protein: recombinant; tags: N-terminal His, thrombin-cleaved; copies: 1;1;1; intramolecular G4.

Data set [6] has as its target T3, RPA-DE. Put plainly: FP; 10 mM NaCl; FP: 0.060 uM FAM-oligo, 10-1500 mM NaCl, room temperature; CD: Buffer A 25 mM Tris pH 7.5, 2 mM MgCl2, 6% glycerol, 1 mM DTT, 100 (or 10) mM NaCl, room temperature. As to conditions: protein: recombinant; tags: N-terminal His, thrombin-cleaved; copies: 1;1; label: 5' 6-FAM.
In data set [7] the target is T4, RPA-C. The description is as above. As to conditions: protein: recombinant; tags: N-terminal His, thrombin-cleaved; label: 5' 6-FAM.
In data set [8] the target is T1, RPA-CDE-core. The data set can be described thus: FP; 100 mM NaCl; FP: 0.060 uM FAM-oligo, 10-1500 mM NaCl, room temperature; CD: Buffer A 25 mM Tris pH 7.5, 2 mM MgCl2, 6% glycerol, 1 mM DTT, 100 (or 10) mM NaCl, room temperature. Set-up: unit not given here. As to conditions: protein: recombinant; tags: N-terminal His, thrombin-cleaved; copies: 1;1;1; label: 5' 6-FAM.

In data set [9] the target is T5, RPA-AB (human, UniProt P27694 181-441). Described as above. Set-up: unit not given here. Conditions: protein: recombinant; tags: N-terminal His6, thrombin-cleaved; label: 5' 6-FAM.
T5 sequence (P27694 181-441): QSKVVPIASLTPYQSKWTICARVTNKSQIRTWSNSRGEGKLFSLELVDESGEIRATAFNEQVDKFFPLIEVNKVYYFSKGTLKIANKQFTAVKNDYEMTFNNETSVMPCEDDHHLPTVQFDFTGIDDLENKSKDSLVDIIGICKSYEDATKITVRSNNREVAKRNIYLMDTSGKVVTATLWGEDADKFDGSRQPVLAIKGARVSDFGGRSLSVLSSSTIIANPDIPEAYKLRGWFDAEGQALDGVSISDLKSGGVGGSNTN
The target of data set [10] is T1, RPA-CDE-core. The data set can be described thus: FP; 10 mM NaCl; FP: 0.060 uM FAM-oligo, 10-1500 mM NaCl, room temperature; CD: Buffer A 25 mM Tris pH 7.5, 2 mM MgCl2, 6% glycerol, 1 mM DTT, 100 (or 10) mM NaCl, room temperature. Set-up: unit not given here. As to conditions: protein: recombinant; tags: N-terminal His, thrombin-cleaved; copies: 1;1;1; label: 5' 6-FAM.

Data set [11] addresses T2, RPA (full-length heterotrimer …). Put plainly: FP; 500 mM NaCl; FP: 0.060 uM FAM-oligo, 10-1500 mM NaCl, room temperature; CD: Buffer A 25 mM Tris pH 7.5, 2 mM MgCl2, 6% glycerol, 1 mM DTT, 100 (or 10) mM NaCl, room temperature. Conditions: protein: recombinant; copies: 1;1;1; label: 5' 6-FAM.
Data set [12] has as its target T4, RPA-C. Put plainly: FP; 10 mM NaCl; FP: 0.060 uM FAM-oligo, 10-1500 mM NaCl, room temperature; CD: Buffer A 25 mM Tris pH 7.5, 2 mM MgCl2, 6% glycerol, 1 mM DTT, 100 (or 10) mM NaCl, room temperature. Set-up: unit not given here. Conditions: protein: recombinant; tags: N-terminal His, thrombin-cleaved; label: 5' 6-FAM.
Data set [13] addresses T5, RPA-AB. The data set can be described thus: FP; 1500 mM NaCl; FP: 0.060 uM FAM-oligo, 10-1500 mM NaCl, room temperature; CD: Buffer A 25 mM Tris pH 7.5, 2 mM MgCl2, 6% glycerol, 1 mM DTT, 100 (or 10) mM NaCl, room temperature. Set-up: unit not given here. As to conditions: protein: recombinant; tags: N-terminal His6, thrombin-cleaved; label: 5' 6-FAM.
In data set [14] the target is T2, RPA (full-length heterotrimer …). The data set can be described thus: FP; 500 mM NaCl; stoichiometric; FP: 0.060 uM FAM-oligo, 10-1500 mM NaCl, room temperature; CD: Buffer A 25 mM Tris pH 7.5, 2 mM MgCl2, 6% glycerol, 1 mM DTT, 100 (or 10) mM NaCl, room temperature. Conditions: protein: recombinant; copies: 1;1;1; label: 5' 6-FAM. Set-up: unit not given here.
For data set [15], the target named is T1, RPA-CDE-core. The data set can be described thus: FP; 1250 mM NaCl; FP: 0.060 uM FAM-oligo, 10-1500 mM NaCl, room temperature; CD: Buffer A 25 mM Tris pH 7.5, 2 mM MgCl2, 6% glycerol, 1 mM DTT, 100 (or 10) mM NaCl, room temperature. Set-up: unit not given here. Conditions: protein: recombinant; tags: N-terminal His, thrombin-cleaved; copies: 1;1;1; label: 5' 6-FAM.

In data set [16] the target is T5, RPA-AB. Described as above. Set-up: unit not given here. As to conditions: protein: recombinant; tags: N-terminal His6, thrombin-cleaved; label: 5' 6-FAM.
Data set [17] concerns the target T1, RPA-CDE-core. Put plainly: FP; 500 mM NaCl; FP: 0.060 uM FAM-oligo, 10-1500 mM NaCl, room temperature; CD: Buffer A 25 mM Tris pH 7.5, 2 mM MgCl2, 6% glycerol, 1 mM DTT, 100 (or 10) mM NaCl, room temperature. As to conditions: protein: recombinant; tags: N-terminal His, thrombin-cleaved; copies: 1;1;1; label: 5' 6-FAM.
The target in data set [18] is T5, RPA-AB. Described as above. Conditions: protein: recombinant; tags: N-terminal His6, thrombin-cleaved; label: 5' 6-FAM.

T3 sequence (P15927 43-171, chain 1 of 2): as the sequence (P15927 43-171, chain 2 of 3) above
T3 sequence (P35244 whole entry, chain 2 of 2): as the sequence (P35244 whole entry, chain 3 of 3) above

With ATCCCCTTCCCAACCTCACCCAA (ssDNA) [Comp competitor (unlabeled)], the binding result (with RPA-CDE-core [1]; in data set [2]) was “binds” throughout.
In the case of TAGGGGAAGGGTTGGAGTGGGTT (structured_DNA) [Gq23 (CD, unlabeled)], the binding result with RPA-DE [3], with RPA-C [4] and with RPA-CDE-core [5] was “binds” throughout.
Consider AAAAAAAAAAAAAAAAAAAAAAA (ssDNA, 18-carbon spacer (sp18) at 5' end) [polyA], for which the binding result in the data set with RPA-DE [6] and with RPA-C [7] was “no binding” in each case. Further, the Kd is 5.88 in the data set with RPA-CDE-core [8], 1.83 in the data set with RPA-AB [9], 0.53 with RPA-CDE-core [10] and 0.17 in data set [11].
On to ATCCCCTTCCCAACCTCACCCAA (ssDNA, 18-carbon spacer (sp18) at 5' end) [Anti (Comp)], for which, in the data set with RPA-DE [6], the binding result is reported as “no binding”. Besides, the Kd with RPA-CDE-core [8] was 0.42; in the data set with RPA-AB [9] it was 0.66; in the data set with RPA-CDE-core [10], 0.22; with RPA-C [12], 3.32; with RPA-AB [13], 2.45; in data set [14], roughly 0.06. In addition, the Kd amounted to 2.81 in the data set with RPA-CDE-core [15], 2.65 with RPA-AB [16], 0.75 with RPA-CDE-core [17] and 1.79 in the data set with RPA-AB [18].
